Values of other authors in article PMC3466315.

Target: NifL 1-140 (Azotobacter vinelandii) (UniProt P30663)
Settings: cited from earlier work

NifL 1-140, sequence (P30663 1-140): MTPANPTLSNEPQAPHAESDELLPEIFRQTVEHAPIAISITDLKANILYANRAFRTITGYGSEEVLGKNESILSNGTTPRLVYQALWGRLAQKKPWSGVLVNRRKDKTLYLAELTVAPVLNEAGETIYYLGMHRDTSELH

In the case of NifL 1-140 (from UniProt P30663), the Kd is listed as 150 nM.
